Source: patent publication US20140212431A1, “PCSK9-BINDING POLYPEPTIDES AND METHODS OF USE” (Genentech, Inc., priority 2011, published 2014)

Assays:
PCSK9 = target: T1, PCSK9 (Homo sapiens, UniProt Q8NBP7); experiment: spot phage ELISA of EGF(A)-displaying phage clones against biotinylated PCSK9; assay type: binding; details: compared to wild type
T1 construct: His8 (C); made in house; host or cells: CHO cells, transient, pRK5 vector, purified from conditioned media
Protocol: “s/n ratio” refers to signal:noise ratio, wherein “signal” is the spot phage ELISA signal detected against biotinylated PCSK9 captured by NeutrAvidin coated on the 384-well MaxiSorp™ plate; “noise” is the ELISA signal against NeutrAvidin alone.
After four rounds of binding selection, individual phage clones were picked and inoculated into 450 μl 2YT media containing 50 μg/ml carbenecillin and M13-KO7 helper phage in 96-well blocks, which were grown at 37° C. for overnight. The supernatant was analyzed with spot phage ELISA as follows: Biotinylated PCSK9 was captured to NeutrAvidin-coated 384-well MaxiSorp™ immunoplates and phage supernatant diluted (1:3) with PBT buffer was added to the wells. The plates were washed and bound phage was detected with anti-M13-HRP followed by TMB substrate. In these assays, phage binding to NeutrAvidin alone was tested in parallel to assess background binding. Clones whose binding signals for PCSK9 were more than 4 times higher than to NeutrAvidin (background) were considered positive. Positive clones were subjected to DNA sequence analysis.

PCSK9 binding to LDLR = target: T2, PCSK9 binding to LDLR (Homo sapiens, UniProt Q8NBP7); experiment: competition binding ELISA (biotinylated PCSK9 binding to coated rLDLR); details: Fc fusion protein; average ±SD of three experiments; read-out: IC50, inhibition of PCSK9 binding to LDLR
T2 construct: His8 (C); biotin (chemical, Sulfo-NHS); host or cells: PCSK9: CHO cells, transient; LDLR extracellular domain purchased
Protocol: The blocking activity of EGF peptides and EGF-Fc fusion proteins was determined by using a competition binding ELISA. Wells of 384 well MaxiSorp™ plates (Nalge Nunc International; Rochester, N.Y.) were coated overnight at 4° C. with 1 μg/mL of recombinant human LDLR extracellular domain (rLDLR) (R&D Systems; Minneapolis, Minn.) in coating buffer (50 mM sodium carbonate, pH 9.6). Then 0.5 μg/ml of biotinylated PCSK9 in assay buffer (25 mM HEPES, pH 7.2, 150 mM NaCl, 0.2 mM CaCl2, 0.1% BSA, 0.05% Tween®20) was mixed with an equal volume of serially diluted EGF peptides (0.017-6000 nM) or EGF-Fc (0.034-6000 nM) and incubated for 30 min. The solutions were added to rLDLR coated plates and incubated for 2 h. Bound biotinylated rPCSK9 was detected by sequential additions of streptavidin-horseradish peroxidase (GE Healthcare; Buckinghamshire, UK) and substrate 3, 3′, 5, 5′ tetramethyl benzidine (TMBE 1000, Moss; Pasadena, Md.). The mean absorbance values from duplicate wells were plotted as a function of antibody concentration and the data were fitted to a four parameter equation for each antibody using KaleidaGraph (Synergy Software; Reading, Pa.).

liver LDLR = experiment: rescue of liver LDLR upon treatment with PCSK9 in a mouse model (immuno-blotting); assay type: in vivo; details: mice, 60 mg/kg i.v. 2 h before 30 μg PCSK9 i.v., liver after 1 h
Protocol: Mice were injected with vehicle (V), EGF-Fc (WT) or EGF66-Fc (MUT) followed by a bolus injection of recombinant human PCSK9 (30 μg/mouse). Livers were collected after 1 h and LDLR quantified by immuno-blotting. Each lane represents the pooled liver samples of three mice. The band intensities were quantified, normalized to transferring receptor contents and expressed as fraction of the untreated group (=1.0).
To determine whether increased affinity and cell efficacy could translate into improved therapeutic potential, we compared the effects of EGFwt-Fc and EGF66-Fc in rescuing liver LDLR upon treatment with PCSK9 in a mouse model. Eight weeks old male C57BL/6 mice were purchased from approved vendor and housed for 2 weeks before starting the experiment. […]
Approximately 200 mg of each liver were homogenized in Extraction Buffer 1 supplemented with Protease Inhibitor Cocktail (ProteoExtract® Native Membrane Protein Extraction Kit, Cat. No. 444810, Calbiochem) using the TissueLyser (Qiagen) according to manufacturer's instructions. […] After 30 min of gentle agitation at 4° C., the samples were centrifuged and the supernatants containing the membrane proteins were quantified using the Bradford assay. […]
Mice were first injected with vehicle, EGFwt-Fc and EGF66-Fc followed by a bolus of recombinant human PCSK9 (30 μg/mouse) and livers were collected and analyzed 1 h later. […]

[1] = system: PCSK9-mediated LDLR degradation; experiment: LDLR degradation assay with HepG2 cells (FACS of cell surface LDLR); assay type: cell-based, human; details: HepG2, 15 μg/ml PCSK9, 4 h, highest concentration tested 20 μM
Protocol: Values are the average ±SD of three independent experiments.
HepG2 cells (ATCC; Manassas, Va.) were seeded into 48 well plates (Corning; Corning, N.Y.) at 1×10^5 cells per well in high glucose medium (DMEM, Gibco; Carlsbad, Calif.) containing 2 mM glutamine (Sigma), penicillin/streptomycin (Gibco) and 10% FBS (Sigma) and incubated overnight. Then the medium was changed to DMEM containing 10% lipoprotein deficient serum (LPDS, Intracel; Frederick, Md.). After 24 h, 15 μg/ml PCSK9 was mixed with serially diluted EGFwt-Fc and EGF66-Fc fusion proteins, added to the cells and incubated at 37° C. for 4 h. Cells were rinsed with PBS and detached using 2.5 mM EDTA (EMD; Gibbstown, N.J.). After centrifugation, the resuspended cells were incubated with 1:20 anti-LDLR antibody (Progen Biotechnik; Heidelberg, Germany) on ice for 15 min. The samples were then washed with PBS and incubated with 1:200 diluted goat anti mouse IgG Alexa Fluor® 488 (Invitrogen; Carlsbad, Calif.) on ice for 15 min. After two PBS washes cells were resuspended in PBS containing 10 μg/ml of propidium iodide and analyzed on a dual laser flow cytometer (FACScan, Becton Dickinson; Franklin Lakes, N.J.). Relative fluorescence units (RFUs) were used to quantify LDLR expression levels on the HepG2 cell surface. Cell surface LDLR levels were expressed as percent of LDLR levels measured in the absence of PCSK9 (=control).

T2 sequence (Q8NBP7 153-692): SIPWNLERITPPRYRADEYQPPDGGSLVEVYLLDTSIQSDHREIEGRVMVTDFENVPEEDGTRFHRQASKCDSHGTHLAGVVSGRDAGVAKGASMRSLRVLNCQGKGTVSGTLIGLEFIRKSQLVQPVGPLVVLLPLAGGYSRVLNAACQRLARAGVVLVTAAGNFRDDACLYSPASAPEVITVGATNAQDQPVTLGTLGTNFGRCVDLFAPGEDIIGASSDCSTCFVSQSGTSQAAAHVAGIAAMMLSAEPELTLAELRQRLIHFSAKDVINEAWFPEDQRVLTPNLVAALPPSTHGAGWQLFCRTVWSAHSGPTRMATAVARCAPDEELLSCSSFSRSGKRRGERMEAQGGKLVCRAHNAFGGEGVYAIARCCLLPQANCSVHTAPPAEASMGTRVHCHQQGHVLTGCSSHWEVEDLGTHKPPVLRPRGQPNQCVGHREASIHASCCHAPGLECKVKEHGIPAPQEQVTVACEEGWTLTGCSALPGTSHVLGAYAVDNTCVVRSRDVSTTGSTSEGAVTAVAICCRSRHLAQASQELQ
T2 sequence (Q8NBP7 31-152 partner limits assumed): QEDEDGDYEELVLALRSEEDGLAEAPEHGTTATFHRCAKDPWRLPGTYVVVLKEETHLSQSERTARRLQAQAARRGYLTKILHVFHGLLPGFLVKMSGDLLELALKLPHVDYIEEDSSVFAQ
T1 sequence (Q8NBP7 153-692): as the sequence (Q8NBP7 153-692) above

## EGF50: phage-displayed EGF(A) clone with single mutation at N309 to Arg
PCSK9
  binding of phage-displayed clone to PCSK9 (in words): moderate increase of binding

## EGF52: EGF(A) variant: Asp299 to Ser, Asn301 to Leu, Asn309 to Arg or Lys, Asp310 to Lys; phage clone and synthetic peptide
PCSK9 binding to LDLR
  IC50: 700 ± 300 pM

## EGFwt-Fc: wild type EGF(A) domain of LDLR fused via linker GGGSGAAQVTNKTHT to Fc domain of human IgG1 [reference compound]
Liver LDLR
  liver LDLR level rescued, % of control levels: less than 50%
[1]
  LDLR surface levels, percent of control levels measured in the absence of PCSK9: 56%
